Assay results taken from FireProtDB (doi:10.1006/jmbi.1995.0324).

B1: Subtilisin inhibitor, P01006 (parent)
chain: MRNTGAGPSPSVSRPPPSAAPLSGAALAAPGDAPSALYAPSALVLTVGKGVSATTAAPERAVTLTCAPGPSGTHPAAGSACADLAAVGGDLNALTRGEDVMCPMVYDPVLLTVDGVWQGKRVSYERVFSNECEMNAHGSSVFAF

Variants of: B1
Conditions: Streptomyces albogriseolus, Thermal, DSC, reversible: yes, structure 3SSI, whole UniProt chain shown; for ddG of mutation (higher = less stable) / unfolding free energy: 82.21 °C

Variant	ddG of mutation (higher = less stable) (pH 7, phosphate 25 mM)	unfolding free energy (pH 7, phosphate 25 mM)	Tm (pH 7, phosphate 25 mM)	change of melting temperature, mutant - wild type (higher = more stable) (pH 7, phosphate 25 mM)	unfolding enthalpy (calorimetric) (pH 7, phosphate 25 mM)	ddG of mutation (higher = less stable) (pH 9.5, glycine 25 mM)	unfolding free energy (pH 9.5, glycine 25 mM)	Tm (pH 9.5, glycine 25 mM)	change of melting temperature, mutant - wild type (higher = more stable) (pH 9.5, glycine 25 mM)	unfolding enthalpy (calorimetric) (pH 9.5, glycine 25 mM)
V44I	0.84 kcal/mol	5.19 kcal/mol	79.8 °C	-2.4 °C	182 kcal/mol	0.94 kcal/mol	5.1 kcal/mol	78.9 °C	-1.83 °C	178 kcal/mol
V44G			54.5 °C	-27.7 °C	162 kcal/mol			55.3 °C	-25.4 °C	158 kcal/mol
V44L			77.7 °C	-4.5 °C	175 kcal/mol	2.52 kcal/mol	3.52 kcal/mol	75.4 °C	-5.3 °C	170 kcal/mol
V44A								67 °C	-13.7 °C	190 kcal/mol
V44M	5.92 kcal/mol	0.11 kcal/mol	69.6 °C	-12.6 °C	181 kcal/mol	5.43 kcal/mol	0.61 kcal/mol	69 °C	-11.7 °C	176 kcal/mol
V44F	5.69 kcal/mol	0.34 kcal/mol	69.1 °C	-13.5 °C	168 kcal/mol	5.33 kcal/mol	0.71 kcal/mol	68.3 °C	-12.4 °C	164 kcal/mol
